Experiment [1] deals with T1, human CD36 (on HEK 293 or SCC25 cells) (human, UniProt P16671 2-472). As to the kind of experiment: cell-based or functional assay.
Experiment [2] concerns the target T1, human CD36 (on HEK 293 or SCC25 cells). As to the kind of experiment: cell-based or functional assay. This is another data set of the same source.
For experiment [3] the target is unchanged. The experiment is described as follows: FACS, SCC25 cells stably overexpressing human CD36. For orientation: A flow cytometer gives signals particle by particle.
For a further experiment, the target named is T2, human CD36 (His-tagged) (human, UniProt P16671 30-439).
T2 construct: not shown: His tag
As to the kind of experiment: SPR (Biacore T200), His-captured CD36, bivalent analyte model.

Experiment [4] deals with T3, nonhuman primate CD36 (on HEK 293 cells) (cynomolgus monkey / rhesus macaque, UniProt P16671 2-472 (human entry)).
T3 construct: also called non-human primate CD36 (cynomolgus)
The experiment is described as follows: FACS, HEK 293 cells transiently overexpressing CD36.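 Further: antibody binding to transfected cells detected by flow cytometry with a fluorescent anti-human secondary antibody, EC50 from a four-parameter sigmoidal fit of mean fluorescence intensity.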
Protocol: (§1) After transiently transfecting the HEK 293 cells with a CD36 expression construct, cells were treated with three-fold serial dilution of each candidate antibody (10 dilutions starting at 500 nM). […] After incubation with the cells, an anti-human fluorescently labelled antibody was added to the cell media, allowed to incubate further, and the unbound antibody was washed off of the cells. Subsequently, the cells were subjected to FACS analysis to determine antibody binding to the cells. The results were fitted to a sigmoidal titration curve. Using a nonlinear regression model, the EC₅₀ values for each antibody were calculated from the GeoMFI and MFI values using the log(agonist) versus response (four parameters) fitting on the data transformed according to X=Log[X] in GraphPad PRISM.

Experiment [5] concerns the target T1, human CD36 (on HEK 293 or SCC25 cells). The experiment is described as above.
Protocol: as §1
The target of experiment [6] is T4, mouse CD36 (on HEK 293 cells) (mouse, UniProt Q08857 1-472).
T4 construct: also called Murine CD36
The experiment is described as above.
Protocol: as §1

Experiment [7] addresses purified biotin-tagged human CD36 (human, UniProt P16671 30-439, limits assumed, biotin tag, site not stated). The experiment is described as follows: AlphaScreen competition; competitor 1G04 on acceptor beads.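 Further: streptavidin donor beads excited at 680 nm release singlet oxygen, and the light signal needs a nearby acceptor bead, with 30 min donor-bead incubation at 25 °C in the dark.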 Background: Alpha assays give light when donor and acceptor beads are brought close together.
For experiment [8], the target named is T1, human CD36 (on HEK 293 or SCC25 cells). As to the kind of experiment: cell-based or functional assay. This is another data set of the same source.

T3 sequence (P16671 other isoform, or with tags, fused parts or gaps limits assumed): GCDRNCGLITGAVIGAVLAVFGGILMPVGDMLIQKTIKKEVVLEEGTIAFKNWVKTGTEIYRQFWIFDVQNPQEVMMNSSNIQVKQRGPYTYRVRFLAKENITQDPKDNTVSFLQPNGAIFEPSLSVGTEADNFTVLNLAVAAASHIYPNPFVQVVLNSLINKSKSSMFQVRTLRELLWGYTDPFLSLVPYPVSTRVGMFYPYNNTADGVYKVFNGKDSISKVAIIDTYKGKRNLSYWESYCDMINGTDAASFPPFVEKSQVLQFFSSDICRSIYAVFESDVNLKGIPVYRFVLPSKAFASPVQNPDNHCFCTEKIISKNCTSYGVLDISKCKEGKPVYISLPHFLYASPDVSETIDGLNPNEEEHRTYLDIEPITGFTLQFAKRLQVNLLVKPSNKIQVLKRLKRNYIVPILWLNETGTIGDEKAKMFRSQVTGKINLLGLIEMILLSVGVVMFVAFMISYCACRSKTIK
T4 sequence (Q08857 whole entry): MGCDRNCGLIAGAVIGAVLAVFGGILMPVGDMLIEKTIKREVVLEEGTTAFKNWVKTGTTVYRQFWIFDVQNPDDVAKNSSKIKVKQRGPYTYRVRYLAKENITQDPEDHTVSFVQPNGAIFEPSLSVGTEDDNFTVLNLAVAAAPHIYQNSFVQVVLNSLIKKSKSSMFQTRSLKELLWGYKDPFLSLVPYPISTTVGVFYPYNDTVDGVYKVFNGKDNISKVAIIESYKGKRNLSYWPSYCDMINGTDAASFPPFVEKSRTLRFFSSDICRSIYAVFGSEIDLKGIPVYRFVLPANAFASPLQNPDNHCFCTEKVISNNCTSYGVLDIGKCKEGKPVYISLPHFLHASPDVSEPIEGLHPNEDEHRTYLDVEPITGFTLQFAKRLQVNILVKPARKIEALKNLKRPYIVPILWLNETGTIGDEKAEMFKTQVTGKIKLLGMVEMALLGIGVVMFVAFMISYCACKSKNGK
T1 sequence (P16671 2-472 limits assumed): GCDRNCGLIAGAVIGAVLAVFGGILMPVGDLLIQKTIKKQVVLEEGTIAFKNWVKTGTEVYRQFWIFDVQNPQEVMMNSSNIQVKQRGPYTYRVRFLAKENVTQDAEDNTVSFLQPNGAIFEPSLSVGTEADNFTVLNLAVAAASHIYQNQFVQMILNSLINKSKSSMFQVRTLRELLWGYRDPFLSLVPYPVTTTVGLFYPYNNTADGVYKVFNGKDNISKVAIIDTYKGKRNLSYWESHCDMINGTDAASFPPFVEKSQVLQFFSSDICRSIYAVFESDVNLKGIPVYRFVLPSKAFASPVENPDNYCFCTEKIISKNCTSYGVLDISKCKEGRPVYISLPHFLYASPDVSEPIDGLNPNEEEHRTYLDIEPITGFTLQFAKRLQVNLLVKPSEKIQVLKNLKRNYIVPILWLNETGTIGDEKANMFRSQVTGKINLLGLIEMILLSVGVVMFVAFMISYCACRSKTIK
Chain of purified biotin-tagged human CD36 (P16671 30-439 limits assumed): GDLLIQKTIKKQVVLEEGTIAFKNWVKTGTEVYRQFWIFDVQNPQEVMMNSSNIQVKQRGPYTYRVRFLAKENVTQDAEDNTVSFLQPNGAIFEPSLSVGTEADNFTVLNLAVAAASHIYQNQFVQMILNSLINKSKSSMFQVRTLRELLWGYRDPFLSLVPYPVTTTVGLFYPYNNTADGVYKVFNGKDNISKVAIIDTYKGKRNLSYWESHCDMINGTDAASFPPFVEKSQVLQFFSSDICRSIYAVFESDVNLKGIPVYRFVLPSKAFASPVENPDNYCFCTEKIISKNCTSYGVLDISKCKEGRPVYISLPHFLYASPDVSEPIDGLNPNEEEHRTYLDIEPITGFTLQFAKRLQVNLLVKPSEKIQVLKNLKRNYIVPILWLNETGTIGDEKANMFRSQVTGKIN
T2 sequence (P16671 30-439 limits assumed): as above

B1: 14G04 (antibody, human IgG1, V domains shown)
VH: QVQLQQSGAELVRSGASVRLSCTASGFNIKDYYIHWVKQRPEQGLEWIGWIDPENGDTEYAPRFQDKATMTADTSSNTAYLQLSSLTSEDTAVYYCNGWLLSGNGMDYWGQGTSVTVSS
VL: DIVMTQSHKFMSTSVGDRVSITCKASQDVGTAVAWYQQKPGQSPKLLIYWASTRHTGVPDRFTGSGSGTDFTLTISNVQSEDLADYFCQQYSSYPTFGGGTKLEIK
notes: Chimeric: mouse variable regions on human IgG1 LALA (L234A/L235A); also called 014G04
Take B1: the “Percent Fatty Acid Uptake Inhibition” value in [1] was found to be 45.1%. In [2], the “IC50 of fatty acid uptake inhibition (BODIPY FL C16, HEK hCD36 cells)” value (“IC50 of fatty acid uptake inhibition” for short) stood at 0.13 nM. Moreover, the EC50 (as a rule, the concentration needed to bring the measured effect to its halfway point) in experiment [3] was found to be 0.41 nM; in experiment [4], 0.88 nM; in experiment [5] it was 1.47 nM; in [6], 1.57 nM; in experiment [7] it was 0.31 nM. Moreover, the Kd with human CD36 (His-tagged) came to 2.3 nM. Further, the koff (commonly the first-order rate constant of dissociation) with human CD36 (His-tagged) amounted to 0.0072 s⁻¹. Further, the on-rate constant (kon) (commonly the second-order rate constant of association) in the experiment with human CD36 (His-tagged) turned out to be 3.1e+06 M⁻¹ s⁻¹. For the same molecule, the “IC50 of oxLDL uptake inhibition (DiI-oxLDL, SCC25 cells)” value in experiment [8] was 0.35 nM.

B2: 32G04 (antibody, human IgG1, V domains shown)
VH: EEKLEESGGGLVQPGGSMKLSCVASGFTFSNYWMNWVRQSPEKGLEWVAEIRLKSNNYATHYAESVKGRFTISRDDSKSSVYLQMNNLRAEDTGIYYCTPLLLRWGQGTTLTVSS
VL: ENVLTQSPAIMSASPGEKVTMTCRASSSLSSTYLHWYQQKSGASPKLWIYSTSNLASGVPARFSGSGSGTSYSLTISSVEAEDAATYYCQQYSGYPLTFGSGTKLEIK
notes: Chimeric: mouse variable regions on human IgG1 LALA (L234A/L235A); also called 032G04
Take B2: the “IC50 of fatty acid uptake inhibition” value in experiment [2] amounted to 42 nM. The concentration for a half-maximal effect (EC50) in experiment [3] stood at 1.88 nM; in experiment [4], 6.52 nM; in experiment [5] it was 0.94 nM; in experiment [6], 5.14 nM; in experiment [7], 1.46 nM.

B3: 21G04 (antibody, human IgG1, V domains shown)
VH: QVQLQQSGAELVKPGASVKLSCKASGYTFTSYWMHWVKQRPGQGLEWIGEIDPSDSHTNYNQKFKGKATLTVDKSSSTAYMQLSSLTSEDSAVYYCAPIYYGLDNWGQGTTLTVSS
VL: ETTVTQSQKFMSTSVGDRVSVTCKASQNVGTNVAWYQQKPGQSPKALIYSASYRYSGVPDRFTGSGSGTDFTLTISNVQSEDLAEYFCQQYNSYPFTFGSGTKLEIK
notes: Chimeric: mouse variable regions on human IgG1 LALA (L234A/L235A)
On to B3, for which the concentration for a half-maximal effect (EC50) came to 6.38 nM in experiment [4], 0.36 nM in [5] and 0.45 nM in experiment [7].

B4: 22G04 (antibody, human IgG1, V domains shown)
VH: QVQLQQPGAELVKPGASVKLSCKASGYTFTSYWMHWVKQRPGQGLEWIGEIDPSDSHANYNQKFKGKATLTVDKSSSTAYMQLSSLTSEDSAVYYCAPIHYGLDNWGQGTTLTVSS
VL: DIVLTQSQKFMSTSVGDRVSVTCKASQNVGTNVAWYQQKPGQSPKALIYSASYRYSGVPDRFTGSGSGTDFTLTISNVQSEDLAEYFCQQYNSYPLTFGAGTKLELK
notes: as for B3
Take B4: the concentration for a half-maximal effect (EC50) in experiment [4] was 1.68 nM; in [5], 1.25 nM; in [7] it was 0.53 nM.

B5: 24G04 (antibody, human IgG1, V domains shown)
VH: QVQLQQSGAELVKPGASVKLSCKASGYTFTSYWMHWVKQRPGQGLEWIGEIDPSDSHANYNQKFKGKATLTVDKSSSTAYMQLSSLTSEDSAVYYCAPIYYGLDNWGQGTTLTVSS
VL: DIVMTQSQKFLSTSVGDRVSVTCKASQNVGTNVAWYQQKPGQSPKVLIYSASYRYSGVPDRFTGSGSGTDFTLTVSNVQSEDLAEYFCQQYNNYPLTFGAGTKLELK
notes: as for B3
As to B5, the concentration giving a half-maximal response (EC50) in experiment [4] worked out at 0.81 nM; in experiment [5] it was 0.26 nM; in experiment [7] it was 0.29 nM.

B6: 23G04 (antibody, human IgG1, V domains shown)
VH: QVQLQQPGTELVKPGASVKLSCKASGYTFTSYWMHWVKQRPGQGLEWIGEIDPSDSHTNYNQKFKGKATLTVDKSSSTAYMQLSSLTSEDSAVYYCAPIYYGLDNWGQGTTLTVSS
VL: DIVLTQSQKFMSTSVGDRVSVTCKASQNVGTNVAWYQQKPGQSPKALIYSASYRYSGVPDRFTGSGSGTDFTLTISNVQSEDLAEYFCQQYNSYPYTFGGGTKLEIK
notes: Chimeric: mouse variable regions on human IgG1 LALA (L234A/L235A); also called 023G04
With B6, the “IC50 of fatty acid uptake inhibition” value in [2] was determined as 1 nM. Besides, the concentration for a half-maximal effect (EC50) in [4] is 1.69 nM; in experiment [5], 0.3 nM; in [7] it was 0.28 nM.

B7: 25G04 (antibody, human IgG1, V domains shown)
VH: EVQLQQSGAELVKPGASVKLSCKASGYTFTSYWMHWVKQRPGQGLEWIGEIDPSDSHANYNQKFKGKATLTVDKSSSTAYMQLSSLTSEDSAVYYCAPIYYGLDNWGQGTTLTVSS
VL: DIVLTQSQKFMSTSVGDRVSVTCKASQNVGTNVAWYQQKPGQSPKALIYSASYRYSGVPDRFTGSGSGTDFTLTISNVQPEDLAEYFCQQYNSYPLTFGGGTKLEIK
notes: as for B3
Regarding B7, the EC50 in [4] stood at 2.19 nM; in [5] it was 0.74 nM; in [7], 0.29 nM.

B8: 18G04 (antibody, human IgG1, V domains shown)
VH: EVQLQQSGPELVKPGASVKISCETSGHTFTEYTMHWVKQSHGKSLEWIGGIYPNNGATKYNQKFKGKATLTVDKSSSTAYMELRSLTSEDSAVYYCARDRYDVWFAYWGQGTLVTVSA
VL: ETTVTQSPASLSMAIGEKVTIRCITSTDIDDDMNWYQQKPGEPPKLLISEGNTLRPGVPSRFSSSGYGTDFVFTIENLLSEDVADYYCLQSDNLPLTFGGGTKLEIK
notes: Chimeric: mouse variable regions on human IgG1 LALA (L234A/L235A); also called 018G04
Take B8: the “IC50 of fatty acid uptake inhibition” value in experiment [2] stood at 2.6 nM. For the same molecule, the results for the concentration giving a half-maximal response (EC50) in [4], in experiment [6] and in experiment [7] were 6.6 nM, 14.7 nM and 15.6 nM, respectively.

B9: 12G04 (antibody, human IgG1, V domains shown)
VH: EVQLVESGGGLVQPGESLKLSCESNEYEFPSHDMSWVRKTPEKRLELVAAINSDGGYTYYPDTMERRFIISRDNTKKTLYLQMSSLRSEDTALYYCARHGYDYDEEGAWFAYWGQGTLVTVSA
VL: ETTVTQSPASLSMAIGEKVTIRCITSTDIDDDMNWYQQKPGEPPKLLISEGNTLRPGVPSRFSSTGYGTDFVFSIENMLSEDVADYYCLQSDNLPFTFGSGTKLEIK
notes: Chimeric: mouse variable regions on human IgG1 LALA (L234A/L235A); also called 012G04
As for B9, the “Percent Fatty Acid Uptake Inhibition” value in experiment [1] is 43.8%. In experiment [2], the “IC50 of fatty acid uptake inhibition” value is 3.9 nM. The EC50 turned out to be 0.39 nM in [3]; 0.67 nM in [4]; 0.31 nM in experiment [5]; 1.2 nM in [6]; 0.78 nM in experiment [7].

B10: 17G04 (antibody, human IgG1, V domains shown)
VH: EVQLQQSGPELVKPGASVKISCKTSGYTFTEYTMHWVKQSHGKSLEWIGGIYPYNGGTAYNQKFKNKATLTVDISSNTAYMALRSLASDDSAVYYCASDYFYGDGYPWFTYWGQGTLVTVSA
VL: ETTVTQSPASLSVATGEKVTIRCITSTDIDDDMNWYQQRPGEPPNLLISEGNTLRPGVPSRFSSSGYGTDFVFTIENTLSEDVADYYCLQSDNLPFTFGSGTRLEIK
notes: as for B3
Regarding B10, the EC50 was 4.03 nM in experiment [4], 1.25 nM in experiment [5], 9.31 nM in experiment [6] and 0.52 nM in experiment [7].

B11: 5G04 (antibody, human IgG1, V domains shown)
VH: QVQLQQSGAELVMPGASVKMSCKASGYTFTDYWMHWVKQRPGQGLEWIGAIDTSDSYTSYNQKFKGKATLTVDESSSTAYMQLSSLTSEDSAVYYCARDYYGSSTAWFAYWGQGTLVTVSA
VL: ETTVTQSPASLSMAIGEKVTIRCITSTDIDDDMNWYQQKPGEPPKLLISEGNTLRPGVPSRFSSSGYGTDFVFTIDNMLSEDVADYYCLQSDNLPFTFGSGTKLEIK
notes: Chimeric: mouse variable regions on human IgG1 LALA (L234A/L235A); also called 05G04; 005G04
On to B11, for which the “IC50 of fatty acid uptake inhibition” value in [2] was over 1000 nM. Moreover, the concentration for a half-maximal effect (EC50) in experiment [4] is 2.43 nM; in experiment [6] it was 5.03 nM; in experiment [7], 0.02 nM.

B12: 9G04 (antibody, human IgG1, V domains shown)
VH: QVQLQQSGAELVRPGASVTLSCKASGYTFTDYEMHWVKQTPVHGLEWIGTVDPETGGTAFNQKFKDKASLTADKSSSTVYMELRSLTSEDSAVYYCSRGYGNYGAWFAYWGQGTLVTVSA
VL: ETTVTQSPASLSVATGEKVTIRCITSTDIDDDMNWYQQKPGEPPKLLISEGNTLRPGVPSRFSSSGYGTDFVFTIENMLSEDVADYYCLQSDNLPFTFGSGTKLEIK
notes: Chimeric: mouse variable regions on human IgG1 LALA (L234A/L235A); also called 09G04; 009G04
With B12, the “Percent Fatty Acid Uptake Inhibition” value in experiment [1] amounted to 41.1%. Moreover, in experiment [2], the “IC50 of fatty acid uptake inhibition” value was 170 nM. Moreover, the EC50 in [3] was 0.41 nM; in experiment [4], 13.9 nM; in [5] it was 0.5 nM; in experiment [6], 12 nM; in experiment [7], 2.06 nM.

B13: 10G04 (antibody, human IgG1, V domains shown)
VH: DVQLQESGPELVKPGASVKISCKASGYTFTDYNMHWVKQSHGKSLEWIGYIYPYNGGTGYNQKFKSKATLTVDNSSSTAYMELRSLTSEDSAVYYCARDGGYDVYFDYWGQGTTLTVSS
VL: DVVMTQTPLSLPVSLGDQASISCRSSQSLVHSNGNTYLHWYLQKPGQSPKLLIYKVSNRFSGVPDRFSGSGSGTDFTLKISRVEAEDLGVYYCFQGSHVPWTFGGGTKLEIK
notes: Chimeric: mouse variable regions on human IgG1 LALA (L234A/L235A); also called 010G04
B13: the “IC50 of fatty acid uptake inhibition” value in experiment [2] came to 33 nM. Moreover, the EC50 in experiment [3] came out at 3.3 nM; in [4], 1.48 nM; in experiment [5] it was 0.77 nM; in [6], 16 nM.
